Measured values taken from paper PMC2198831 (The Journal of Cell Biology, 2001).

T1: yeast capping protein Cap1/2p, purified (S. cerevisiae, UniProt P28495;P13517)
T1 sequence 1: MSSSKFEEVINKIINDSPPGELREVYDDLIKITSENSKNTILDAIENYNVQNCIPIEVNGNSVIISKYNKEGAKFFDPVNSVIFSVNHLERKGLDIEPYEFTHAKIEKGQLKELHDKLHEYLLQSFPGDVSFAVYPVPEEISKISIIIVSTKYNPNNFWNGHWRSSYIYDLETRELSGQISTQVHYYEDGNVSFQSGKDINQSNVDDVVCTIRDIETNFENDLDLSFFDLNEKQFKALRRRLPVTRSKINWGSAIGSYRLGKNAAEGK
T1 sequence 2: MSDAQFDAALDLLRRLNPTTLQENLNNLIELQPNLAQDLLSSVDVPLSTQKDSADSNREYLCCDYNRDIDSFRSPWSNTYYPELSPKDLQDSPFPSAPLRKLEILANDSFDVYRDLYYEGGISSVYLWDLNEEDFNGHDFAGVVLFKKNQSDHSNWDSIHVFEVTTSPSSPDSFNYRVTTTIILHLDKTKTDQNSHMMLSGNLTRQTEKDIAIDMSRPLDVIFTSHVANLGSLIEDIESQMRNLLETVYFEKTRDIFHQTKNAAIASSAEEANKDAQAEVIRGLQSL


Key:
yeast actin monomers = yeast actin monomers (S. cerevisiae, UniProt P60010 1-375); experiment: native gel or EMSA
[1] = molecular target: T1, yeast capping protein Cap1/2p, purified; experiment: native gel or EMSA

Row | Binder | binding result (yeast actin monomers) | binding result [1]
1 | yeast twinfilin (Twf1p), wild type, purified recombinant (natural protein) MSTQSGIVAEQALLHSLNENLSADGIVIIIAKISPDSTSVHQTQVARSFEELVQLASQEREPLYIFYKPEGLDKYFFVSFIPDGSPVRSRMLYASTKNTLARQVGSNSLSTEQPLITDAQDLVDLKNFDSARPAGQNKPLTHDEEMQIEINKQQALLRKNTSVKLVSQDSASPLSLTFRVNSEKPINEILDSEGKNLIIFQIDPSNETIQIVQSDTCPSVDELYIDLPGPSYTIFRQGDSSFFIYSCPSGSKVKDRMIYASNKNGFINYLKNDQKIAFSKVVEIGDFVELDKSLLMATNKEDSLDHGSNPDLPNKSNLKFNKPKGPLRKRRT | binds | binds
2 | Twf1-3p mutant yeast twinfilin (alanines in both ADF-H domains) (natural protein) MSTQSGIVAEQALLHSLNENLSADGIVIIIAKISPDSTSVHQTQVARSFEELVQLASQEREPLYIFYKPEGLDKYFFVSFIPDGSPVASAMLYASTKNTLARQVGSNSLSTEQPLITDAQDLVDLKNFDSARPAGQNKPLTHDEEMQIEINKQQALLRKNTSVKLVSQDSASPLSLTFRVNSEKPINEILDSEGKNLIIFQIDPSNETIQIVQSDTCPSVDELYIDLPGPSYTIFRQGDSSFFIYSCPSGSKVADAMIYASNKNGFINYLKNDQKIAFSKVVEIGDFVELDKSLLMATNKEDSLDHGSNPDLPNKSNLKFNKPKGPLRKRRT |  | binds
